Read-outs that look alike come from different tables or passages of the source. Each block holds one substance with its values, some of them ahead of it.
What was measured:
Experiment in all cases: cell-based or functional assay
[1] = target: human CD40 on the cell surface (human) (UniProt P25942)
[2] = target: CD20 on the cell surface (human) (UniProt P11836)
[3] = target: human CD40 on normal human B cells / PBMC (human) (UniProt P25942)
[4] = target: human CD40 on B cells within PBMC from normal human subjects (human) (UniProt P25942)
[5] = target: human CD40 on B cells in PBMC from normal human subjects (human) (UniProt P25942)
[6] = target: human CD40 on normal human B cells / PBMC (human) (UniProt P25942); remark: listed apart in the source

Sequence of human CD40 on normal human B cells / PBMC (human) (P25942 20-277): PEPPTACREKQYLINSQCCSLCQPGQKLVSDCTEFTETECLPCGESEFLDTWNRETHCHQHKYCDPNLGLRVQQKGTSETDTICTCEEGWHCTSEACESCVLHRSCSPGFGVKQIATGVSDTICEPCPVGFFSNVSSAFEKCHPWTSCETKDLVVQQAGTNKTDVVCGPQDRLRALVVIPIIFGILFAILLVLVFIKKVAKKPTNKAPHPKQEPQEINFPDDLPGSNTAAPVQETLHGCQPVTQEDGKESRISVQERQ
Sequence of human CD40 on B cells within PBMC from normal human subjects (human) (P25942 20-277): as above
Sequence of human CD40 on B cells in PBMC from normal human subjects (human) (P25942 20-277): as above
Sequence of CD20 on the cell surface (human) (P11836 whole entry): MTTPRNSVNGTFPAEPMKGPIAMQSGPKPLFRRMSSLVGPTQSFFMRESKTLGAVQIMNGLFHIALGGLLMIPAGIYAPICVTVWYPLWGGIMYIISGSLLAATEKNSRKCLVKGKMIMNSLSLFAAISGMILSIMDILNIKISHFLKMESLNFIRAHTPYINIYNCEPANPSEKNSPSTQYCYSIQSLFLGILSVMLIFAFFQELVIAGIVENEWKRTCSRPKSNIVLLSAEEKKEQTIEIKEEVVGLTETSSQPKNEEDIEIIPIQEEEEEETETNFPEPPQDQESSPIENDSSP
Sequence of human CD40 on the cell surface (human) (P25942 20-277): as the sequence (P25942 20-277) above

average stimulation index (SI) of PBMC proliferation [1]: 7.41
Substance: CD40 ligand on formaldehyde-fixed CHO cells (from UniProt P29965 1-261)

% lysis - % lysis IgG1; ADCC-006, huNK E:T 2, 0.01 ug/ml [2]: 33%
% lysis - % lysis IgG1; ADCC-006, huNK E:T 2, 0.1 ug/ml [2]: 44.6%
% lysis - % lysis IgG1; ADCC-006, huNK E:T 2, 1 ug/ml [2]: 45.7%
% lysis - % lysis IgG1; ADCC-006, huNK E:T 2, 10 ug/ml [2]: 37.9%
% lysis - % lysis IgG1; ADCC-009 Calcein AM, huNK E:T 10, 0.04 ug/ml [2]: 81.5%
% lysis - % lysis IgG1; ADCC-009 Calcein AM, huNK E:T 10, 0.2 ug/ml [2]: 90.2%
% lysis - % lysis IgG1; ADCC-009 Calcein AM, huNK E:T 10, 1 ug/ml [2]: 87.7%
% lysis - % lysis IgG1; ADCC-009 Calcein AM, huNK E:T 10, 5 ug/ml [2]: 83.9%
% lysis - % lysis IgG1; ADCC-011 Calcein AM, huNK E:T 8, 0.0004 ug/ml [2]: -1.04%
% lysis - % lysis IgG1; ADCC-011 Calcein AM, huNK E:T 8, 0.002 ug/ml [2]: 4.16%
% lysis - % lysis IgG1; ADCC-011 Calcein AM, huNK E:T 8, 0.01 ug/ml [2]: 10.1%
% lysis - % lysis IgG1; ADCC-011 Calcein AM, huNK E:T 8, 1 ug/ml [2]: 19.3%
% lysis - % lysis IgG1; ADCC-012 Calcein AM, huNK E:T 10, 0.001 ug/ml [2]: 21.1%
% lysis - % lysis IgG1; ADCC-012 Calcein AM, huNK E:T 10, 0.005 ug/ml [2]: 25.7%
% lysis - % lysis IgG1; ADCC-012 Calcein AM, huNK E:T 10, 0.01 ug/ml [2]: 37.9%
% lysis - % lysis IgG1; ADCC-012 Calcein AM, huNK E:T 10, 1 ug/ml [2]: 52.5%
% lysis - % lysis IgG1; ADCC-012 Calcein AM, huNK E:T 10, 10 ug/ml [2]: 37.4%
% lysis - % lysis IgG1; ADCC-013 51Cr, PBMC E:T 100, 0.001 ug/ml [2]: 0.35%
% lysis - % lysis IgG1; ADCC-013 51Cr, PBMC E:T 100, 0.01 ug/ml [2]: 9.87%
% lysis - % lysis IgG1; ADCC-013 51Cr, PBMC E:T 100, 0.1 ug/ml [2]: 24.7%
% lysis - % lysis IgG1; ADCC-013 51Cr, PBMC E:T 100, 1 ug/ml [2]: 29.7%
% lysis; ADCC-006, huNK E:T 2, 0.01 ug/ml [2]: 28.5%
% lysis; ADCC-006, huNK E:T 2, 0.1 ug/ml [2]: 33.6%
% lysis; ADCC-006, huNK E:T 2, 1 ug/ml [2]: 37.1%
% lysis; ADCC-006, huNK E:T 2, 10 ug/ml [2]: 34.8%
% lysis; ADCC-009 Calcein AM, huNK E:T 10, 0.04 ug/ml [2]: 84.9%
% lysis; ADCC-009 Calcein AM, huNK E:T 10, 0.2 ug/ml [2]: 88.8%
% lysis; ADCC-009 Calcein AM, huNK E:T 10, 1 ug/ml [2]: 88.2%
% lysis; ADCC-011 Calcein AM, huNK E:T 8, 0.0004 ug/ml [2]: 5.99%
% lysis; ADCC-011 Calcein AM, huNK E:T 8, 0.002 ug/ml [2]: 9.58%
% lysis; ADCC-011 Calcein AM, huNK E:T 8, 0.01 ug/ml [2]: 14.7%
% lysis; ADCC-011 Calcein AM, huNK E:T 8, 1 ug/ml [2]: 22.4%
% lysis; ADCC-012 Calcein AM, huNK E:T 10, 0.001 ug/ml [2]: 33.1%
% lysis; ADCC-012 Calcein AM, huNK E:T 10, 0.005 ug/ml [2]: 39.3%
% lysis; ADCC-012 Calcein AM, huNK E:T 10, 0.01 ug/ml [2]: 50.2%
% lysis; ADCC-012 Calcein AM, huNK E:T 10, 1 ug/ml [2]: 66%
% lysis; ADCC-012 Calcein AM, huNK E:T 10, 10 ug/ml [2]: 50.8%
% lysis; ADCC-013 51Cr, PBMC E:T 100, 0.001 ug/ml [2]: 3.13%
% lysis; ADCC-013 51Cr, PBMC E:T 100, 0.01 ug/ml [2]: 12.8%
% lysis; ADCC-013 51Cr, PBMC E:T 100, 0.1 ug/ml [2]: 27.2%
% lysis; ADCC-013 51Cr, PBMC E:T 100, 1 ug/ml [2]: 32.3%
Average % lysis at 1 ug/ml concentration of mAbs (% lysis - % lysis IgG1) [2]: 47.2%
Substance: rituximab (antibody)

CPM, B cells + CHO-CD40L; B cell-004 donor 2 [3]: 27200 CPM
CPM, B cells+CHO-CD40L; B cell-004 donor 1 [3]: 3130 CPM
CPM, B cells+CHO-CD40L; B cell-005 donor 3 [3]: 24600 CPM
CPM, PBMC+CHO-CD40L (tritiated thymidine); PBMC-025 Donor#1 [3]: 42300 CPM
CPM, PBMC+CHO-CD40L (tritiated thymidine); PBMC-025 Donor#2 [3]: 15000 CPM
CPM, PBMC+CHO-CD40L (tritiated thymidine); PBMC-026 Donor#1 [3]: 19100 CPM
CPM, PBMC+CHO-CD40L (tritiated thymidine); PBMC-026 Donor#2 [3]: 17800 CPM
CPM, PBMC+CHO-CD40L (tritiated thymidine); PBMC-028 Donor#1 [3]: 22500 CPM
CPM, PBMC+CHO-CD40L (tritiated thymidine); PBMC-028 Donor#2 [3]: 54900 CPM
CPM, PBMC+CHO-CD40L (tritiated thymidine); PBMC-029 Donor#1 [3]: 10100 CPM
CPM, PBMC+CHO-CD40L (tritiated thymidine); PBMC-029 Donor#2 [3]: 23100 CPM
CPM, PBMC+CHO-CD40L (tritiated thymidine); PBMC-030 Donor#1 [3]: 53400 CPM
CPM, PBMC+CHO-CD40L (tritiated thymidine); PBMC-030 Donor#2 [3]: 53800 CPM
CPM, PBMC+CHO-CD40L (tritiated thymidine); PBMC-032 Donor#1 [3]: 14100 CPM
Average SI of PBMC, index(1) [4]: 11.9
Average Stimulation index, S.index (1) [4]: 22
PBMC proliferation CPM (PBMC+CHO-CD40L), Immoblize-004 [4]: 11700 CPM
PBMC proliferation CPM (PBMC+CHO-CD40L), PBMC-012 [4]: 6810 CPM
PBMC proliferation CPM (PBMC+CHO-CD40L), PBMC-025 Donor#1 [4]: 42300 CPM
PBMC proliferation CPM (PBMC+CHO-CD40L), PBMC-025 Donor#2 [4]: 15000 CPM
PBMC proliferation CPM (PBMC+CHO-CD40L), PBMC-026 Donor#1 [4]: 18300 CPM
PBMC proliferation CPM (PBMC+CHO-CD40L), PBMC-026 Donor#2 [4]: 18100 CPM
PBMC proliferation CPM (PBMC+CHO-CD40L), PBMC-027 Donor#1 [4]: 13000 CPM
PBMC proliferation CPM (PBMC+CHO-CD40L), PBMC-027 Donor#2 [4]: 11900 CPM
PBMC proliferation CPM (PBMC+CHO-CD40L), PBMC-028 Donor#1 [4]: 22500 CPM
PBMC proliferation CPM (PBMC+CHO-CD40L), PBMC-028 Donor#2 [4]: 54900 CPM
PBMC proliferation CPM (PBMC+CHO-CD40L), PBMC-029 Donor#1 [4]: 10100 CPM
PBMC proliferation CPM (PBMC+CHO-CD40L), PBMC-029 Donor#2 [4]: 23100 CPM
PBMC proliferation CPM (PBMC+CHO-CD40L), PBMC-030 Donor#1 [4]: 57200 CPM
PBMC proliferation CPM (PBMC+CHO-CD40L), PBMC-030 Donor#2 [4]: 53900 CPM
PBMC proliferation CPM (PBMC+CHO-CD40L), PBMC-032 Donor#1 [4]: 15300 CPM
PBMC proliferation S.index (1), Immoblize-004 [4]: 13.7
PBMC proliferation S.index (1), PBMC-012 [4]: 30.3
PBMC proliferation index(1), PBMC-025 Donor#1 [4]: 10.4
PBMC proliferation index(1), PBMC-025 Donor#2 [4]: 6.63
PBMC proliferation index(1), PBMC-026 Donor#1 [4]: 8.78
PBMC proliferation index(1), PBMC-026 Donor#2 [4]: 26.7
PBMC proliferation index(1), PBMC-027 Donor#1 [4]: 4.75
PBMC proliferation index(1), PBMC-027 Donor#2 [4]: 8.89
PBMC proliferation index(1), PBMC-028 Donor#1 [4]: 5.26
PBMC proliferation index(1), PBMC-028 Donor#2 [4]: 25.6
PBMC proliferation index(1), PBMC-029 Donor#1 [4]: 16.5
PBMC proliferation index(1), PBMC-029 Donor#2 [4]: 2.99
PBMC proliferation index(1), PBMC-030 Donor#1 [4]: 13.7
PBMC proliferation index(1), PBMC-030 Donor#2 [4]: 16.2
PBMC proliferation index(1), PBMC-032 Donor#1 [4]: 8.45
Average SI of PBMC, index(1), PBMC+CHO-CD40L [5]: 5.09
CPM, PBMC+CHO-CD40L (PBMC-010) [5]: 5280 CPM
CPM, PBMC+CHO-CD40L (PBMC-011 Donor#1) [5]: 8250 CPM
CPM, PBMC+CHO-CD40L (PBMC-011 Donor#2) [5]: 11600 CPM
CPM, PBMC+CHO-CD40L (PBMC-011 Donor#3) [5]: 7960 CPM
CPM, PBMC+CHO-CD40L (PBMC-011 Donor#4) [5]: 14300 CPM
CPM, PBMC+CHO-CD40L (PBMC-014) [5]: 8790 CPM
CPM, PBMC+CHO-CD40L (PBMC-015 Donor#1) [5]: 12900 CPM
CPM, PBMC+CHO-CD40L (PBMC-015 Donor#2) [5]: 19100 CPM
CPM, PBMC+CHO-CD40L (PBMC-015 Donor#3) [5]: 19800 CPM
CPM, PBMC+CHO-CD40L (PBMC-016) [5]: 15800 CPM
index(1), PBMC+CHO-CD40L (PBMC-010) [5]: 3.73
index(1), PBMC+CHO-CD40L (PBMC-011 Donor#1) [5]: 3.86
index(1), PBMC+CHO-CD40L (PBMC-011 Donor#2) [5]: 4.87
index(1), PBMC+CHO-CD40L (PBMC-011 Donor#3) [5]: 2.46
index(1), PBMC+CHO-CD40L (PBMC-011 Donor#4) [5]: 3.41
index(1), PBMC+CHO-CD40L (PBMC-014) [5]: 3.74
index(1), PBMC+CHO-CD40L (PBMC-015 Donor#1) [5]: 3.94
index(1), PBMC+CHO-CD40L (PBMC-015 Donor#2) [5]: 3.14
index(1), PBMC+CHO-CD40L (PBMC-015 Donor#3) [5]: 8
index(1), PBMC+CHO-CD40L (PBMC-016) [5]: 13.8
Average Stimulation Index (SI), B cells+CHO-CD40L [6]: 145
CPM, B cells+CHO-CD40L; B cell-004 donor 1 [6]: 3130 CPM
CPM, B cells+CHO-CD40L; B cell-005 donor 3 [6]: 24600 CPM
CPM, B cells+CHO-CD40L; donor 2 [6]: 27200 CPM
S. index(1) = CPM (B cells+CHO-CD40L)/CPM (B cells alone); B cell-004 donor 1 [6]: 7.49
S. index(1) = CPM (B cells+CHO-CD40L)/CPM (B cells alone); B cell-005 donor 3 [6]: 92
S. index(1) = CPM (B cells+CHO-CD40L)/CPM (B cells alone); donor 2 [6]: 336
Substance: CD40 ligand expressed on formaldehyde-fixed CHO cells (from UniProt P29965 1-261)

Reference: patent publication EP2149585A1
